According to patent US12584139B2, “Nucleic acid construct set, kit, detection method and method for predicting drug effect” (KABUSHIKI KAISHA TOSHIBA, priority 2020, dated 2026):

B1: vector 1-10: CMV-promoter vector with Cre gene cleaved by ApaI/NheI, 10-base homologous sequences at the cleavage site (from SEQ ID NO: 9) (nucleic acid)
DNA: AGTGAACCGTCAGATCCTCGAGATCTGCGATCTAAGTAATGTCCAATTTACTGACCGTACACCAAAATTTGCCTGCATTACCGGTCGATGCAACGAGTGATGAGGTTCGCAAGAACCTGATGGACATGTTCAGGGATCGCCAGGCGTTTTCTGAGCATACCTGGAAAATGCTTCTGTCCGTTTGCCGGTCGTGGGCGGCATGGTGCAAGTTGAATAACCGGAAATGGTTTCCCGCAGAACCTGAAGATGTTCGCGATTATCTTCTATATCTTCAGGCGCGCGGTCTGGCAGTAAAAACTATCCAGCAACATTTGGGCCAGCTAAACATGCTTCATCGTCGGTCCGGGCTGCCACGACCAAGTGACAGCAATGCTGTTTCACTGGTTATGCGGCGGGGCCCGTTAACGCTAGCTTATGCGGCGGATCCGAAAAGAAAACGTTGATGCCGGTGAACGTGCAAAACAGGCTCTAGCGTTCGAACGCACTGATTTCGACCAGGTTCGTTCACTCATGGAAAATAGCGATCGCTGCCAGGATATACGTAATCTGGCATTTCTGGGGATTGCTTATAACACCCTGTTACGTATAGCCGAAATTGCCAGGATCAGGGTTAAAGATATCTCACGTACTGACGGTGGGAGAATGTTAATCCATATTGGCAGAACGAAAACGCTGGTTAGCACCGCAGGTGTAGAGAAGGCACTTAGCCTGGGGGTAACTAAACTGGTCGAGCGATGGATTTCCGTCTCTGGTGTAGCTGATGATCCGAATAACTACCTGTTTTGCCGGGTCAGAAAAAATGGTGTTGCCGCGCCATCTGCCACCAGCCAGCTATCAACTCGCGCCCTGGAAGGGATTTTTGAAGCAACTCATCGATTGATTTACGGCGCTAAGGATGACTCTGGTCAGAGATACCTGGCCTGGTCTGGACACAGTGCCCGTGTCGGAGCCGCGCGAGATATGGCCCGCGCTGGAGTTTCAATACCGGAGATCATGCAAGCTGGTGGCTGGACCAATGTAAATATTGTCATGAACTATATCCGTAACCTGGATAGTGAAACAGGGGCAATGGTGCGCCTGCTGGAAGATGGCGATTAGGGCCGCGACTCTAGAACTAGTGGATCCCCC
modifications: misc_feature 1..1128 vector 1-10
B2: vector 1-20: CMV-promoter vector with Cre gene cleaved by ApaI/NheI, 20-base homologous sequences at the cleavage site (from SEQ ID NO: 10) (nucleic acid)
DNA: AGTGAACCGTCAGATCCTCGAGATCTGCGATCTAAGTAATGTCCAATTTACTGACCGTACACCAAAATTTGCCTGCATTACCGGTCGATGCAACGAGTGATGAGGTTCGCAAGAACCTGATGGACATGTTCAGGGATCGCCAGGCGTTTTCTGAGCATACCTGGAAAATGCTTCTGTCCGTTTGCCGGTCGTGGGCGGCATGGTGCAAGTTGAATAACCGGAAATGGTTTCCCGCAGAACCTGAAGATGTTCGCGATTATCTTCTATATCTTCAGGCGCGCGGTCTGGCAGTAAAAACTATCCAGCAACATTTGGGCCAGCTAAACATGCTTCATCGTCGGTCCGGGCTGCCACGACCAAGTGACAGCAATGCTGTTTCACTGGTTATGCGGCGGATCCGAAAAGGGCCCGTTAACGCTAGCTTATGCGGCGGATCCGAAAAGAAAACGTTGATGCCGGTGAACGTGCAAAACAGGCTCTAGCGTTCGAACGCACTGATTTCGACCAGGTTCGTTCACTCATGGAAAATAGCGATCGCTGCCAGGATATACGTAATCTGGCATTTCTGGGGATTGCTTATAACACCCTGTTACGTATAGCCGAAATTGCCAGGATCAGGGTTAAAGATATCTCACGTACTGACGGTGGGAGAATGTTAATCCATATTGGCAGAACGAAAACGCTGGTTAGCACCGCAGGTGTAGAGAAGGCACTTAGCCTGGGGGTAACTAAACTGGTCGAGCGATGGATTTCCGTCTCTGGTGTAGCTGATGATCCGAATAACTACCTGTTTTGCCGGGTCAGAAAAAATGGTGTTGCCGCGCCATCTGCCACCAGCCAGCTATCAACTCGCGCCCTGGAAGGGATTTTTGAAGCAACTCATCGATTGATTTACGGCGCTAAGGATGACTCTGGTCAGAGATACCTGGCCTGGTCTGGACACAGTGCCCGTGTCGGAGCCGCGCGAGATATGGCCCGCGCTGGAGTTTCAATACCGGAGATCATGCAAGCTGGTGGCTGGACCAATGTAAATATTGTCATGAACTATATCCGTAACCTGGATAGTGAAACAGGGGCAATGGTGCGCCTGCTGGAAGATGGCGATTAGGGCCGCGACTCTAGAACTAGTGGATCCCCC
modifications: misc_feature 1..1138 vector 1-20
B3: vector 1-30: CMV-promoter vector with Cre gene cleaved by ApaI/NheI, 30-base homologous sequences at the cleavage site (from SEQ ID NO: 11) (nucleic acid)
DNA: AGTGAACCGTCAGATCCTCGAGATCTGCGATCTAAGTAATGTCCAATTTACTGACCGTACACCAAAATTTGCCTGCATTACCGGTCGATGCAACGAGTGATGAGGTTCGCAAGAACCTGATGGACATGTTCAGGGATCGCCAGGCGTTTTCTGAGCATACCTGGAAAATGCTTCTGTCCGTTTGCCGGTCGTGGGCGGCATGGTGCAAGTTGAATAACCGGAAATGGTTTCCCGCAGAACCTGAAGATGTTCGCGATTATCTTCTATATCTTCAGGCGCGCGGTCTGGCAGTAAAAACTATCCAGCAACATTTGGGCCAGCTAAACATGCTTCATCGTCGGTCCGGGCTGCCACGACCAAGTGACAGCAATGCTGTTTCACTGGTTATGCGGCGGATCCGAAAAGAAAACGTTGGGGCCCGTTAACGCTAGCTTATGCGGCGGATCCGAAAAGAAAACGTTGATGCCGGTGAACGTGCAAAACAGGCTCTAGCGTTCGAACGCACTGATTTCGACCAGGTTCGTTCACTCATGGAAAATAGCGATCGCTGCCAGGATATACGTAATCTGGCATTTCTGGGGATTGCTTATAACACCCTGTTACGTATAGCCGAAATTGCCAGGATCAGGGTTAAAGATATCTCACGTACTGACGGTGGGAGAATGTTAATCCATATTGGCAGAACGAAAACGCTGGTTAGCACCGCAGGTGTAGAGAAGGCACTTAGCCTGGGGGTAACTAAACTGGTCGAGCGATGGATTTCCGTCTCTGGTGTAGCTGATGATCCGAATAACTACCTGTTTTGCCGGGTCAGAAAAAATGGTGTTGCCGCGCCATCTGCCACCAGCCAGCTATCAACTCGCGCCCTGGAAGGGATTTTTGAAGCAACTCATCGATTGATTTACGGCGCTAAGGATGACTCTGGTCAGAGATACCTGGCCTGGTCTGGACACAGTGCCCGTGTCGGAGCCGCGCGAGATATGGCCCGCGCTGGAGTTTCAATACCGGAGATCATGCAAGCTGGTGGCTGGACCAATGTAAATATTGTCATGAACTATATCCGTAACCTGGATAGTGAAACAGGGGCAATGGTGCGCCTGCTGGAAGATGGCGATTAGGGCCGCGACTCTAGAACTAGTGGATCCCCC
modifications: misc_feature 1..1148 vector 1-30

system: human mammary tumor-derived cell line (MCF-7); assay: NanoLuc luminescence assay after transfection of lipid particles encapsulating vectors 1 and vector 2; assay type: cell-based; conditions: vector 1 (50 ng/well) together with vector 2 (1 ng/well), MCF-7, 48 hours
Method: A human mammary tumor-derived cell line (MCF-7) was subjected to adhesion culture at 37° C. in a 5% CO2 atmosphere in a culture flask using a medium (MEM, GIBCO) to which 10% fetal bovine serum (FBS) was added. After the culture, the medium was removed, and the cells were washed with PBS, and then the cells were detached by 0.25% trypsin-EDTA treatment. Then, the cells were suspended in a medium to which 10% FBS was added to inactivate trypsin. After recovering the cells by centrifugation, the cells were suspended in a medium to which 10% FBS was added to be 2.0×10^5 cells/mL. To a 96 well culture dish (manufactured by Thermo Fisher Scientific), 200 μL of the cell suspension was added to be 4.0×10^4 cells/well.
Next, the lipid particles encapsulating the three types of vectors 1 prepared in Example 3 were added to the wells to be a DNA concentration of 50 ng/well. At the same time, the lipid particles encapsulating the vector 2 prepared in Example 3 were further added to the wells to be a DNA concentration of 1 ng/well. As a control, a well to which only the vector 2 was added was also provided. Therefore, a sample to which only the vector 2 was added, a sample to which the vector 1-10 and the vector 2 were added, a sample to which the vector 1-20 and the vector 2 were added, and a sample to which the vector 1-30 and the vector 2 were added were obtained. After the addition, the cells were cultured at 37° C. in a 5% CO2 atmosphere.
48 hours after the addition of the lipid particles, the culture plate was taken out of the incubator, and the medium was removed. Then, the cells were washed with PBS, Glo Lysis Buffer (Promega) was added thereto at 100 μL/well, and the resulting mixtures were frozen at −80° C. for 30 minutes. The mixtures were melted at room temperature and then collected in 1.5 ml centrifuge tubes. The cell lysates were centrifuged at 15,000 rpm for 10 minutes to precipitate cell residues, and 25 μL of supernatant was dispensed into a 96 well plate (Black, Nunc). To the dispensed supernatant, 25 μL of a luciferase substrate solution contained in a luciferase assay system (Nano-Glo (registered trademark) Luciferase Assay System, Promega Corporation) was added and mixed. The luminescence amount of the resulting mixture per 1 well per 0.1 seconds was measured by using a luminometer (Mithras LB 940, Berthold).

Row | Molecule | luminescence amount ratio (luminescence intensity with vector 2 alone assumed to be 1)
1 | B1 | 0.45
2 | B2 | 0.31
3 | B3 | 0.37

same assay, conditions: vector 1 (50 ng/well) transfected together with vector 2 (1 ng/well), lipid particles, MCF-7, 48 hours after addition

Row | Molecule | NanoLuc luminescence intensity (RLU)
4 | B1 | about 2.9×10^5 RLU
5 | B2 | ~2.0×10^5 RLU
6 | B3 | ~2.4×10^5 RLU
